Reference: patent US10357554B2, “AMA-1 epitopes, antibodies, compositions, and methods of making and using the same” (THE UNITED STATES OF AMERICA, AS REPRESENTED BY THE …, dated 2019)
Residue numbers refer to the chain shown, from its start. Read-outs that look alike come from different tables or passages of the source.

Key:
[1] = molecular target: AMA-1 on P. falciparum 3D7 strain parasites (Plasmodium falciparum)
[2] = molecular target: AMA-1 on P. falciparum 3D7 strain parasites (Plasmodium falciparum); remark: listed apart in the source
[3] = molecular target: T1, AMA-1 on P. falciparum 3D7 strain parasites (Plasmodium falciparum); assay: cell-based or functional assay
T1 chain: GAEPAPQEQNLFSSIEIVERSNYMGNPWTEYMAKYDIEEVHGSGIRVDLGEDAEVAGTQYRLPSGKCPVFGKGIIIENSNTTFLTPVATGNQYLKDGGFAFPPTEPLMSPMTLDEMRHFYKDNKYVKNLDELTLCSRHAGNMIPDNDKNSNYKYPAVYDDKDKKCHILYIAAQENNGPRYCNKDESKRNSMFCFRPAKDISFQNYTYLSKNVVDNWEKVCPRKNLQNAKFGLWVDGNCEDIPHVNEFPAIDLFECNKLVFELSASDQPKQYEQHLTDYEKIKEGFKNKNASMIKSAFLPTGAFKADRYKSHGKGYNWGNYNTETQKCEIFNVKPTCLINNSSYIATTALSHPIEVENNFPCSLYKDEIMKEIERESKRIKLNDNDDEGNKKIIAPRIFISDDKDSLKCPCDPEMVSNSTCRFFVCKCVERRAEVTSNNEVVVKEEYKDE

[4] = molecular target: 7 AMA-1 allelic proteins; assay: dot blot against 7 AMA-1 allelic proteins
[5] = molecular target: T1, AMA-1 on P. falciparum 3D7 strain …; assay: cell-based or functional assay

Molecule: rat mAb 4G2dc1 (antibody)
- IC30 concentration in GIA against 3D7 target parasites [1]: 1.8 mg/mL
- GIA at 1 mg/ml against the 3D7 target strain: Inhibition [2]: 22%

B1: Monoclonal 1E10 (antibody, V domains shown)
VH: EVQLQESGAELAKPGASVKLSCKASGYTFTNYLMHWIKQRPGQGLEWIGYINHGSGYTNYNQKFIDRATLTADKSSSTAYMQLRSLTYEDSAVYYCVHGYFDVWGTGTTVTVSS
VL: QIVLTQSPTIMSASPGEKVTMTCSASSSVTYMHWYQQKPGTSPKRWIYDTSKLASGVPARFSGSGSGTSYSLTISSMEAEDAATYYCHQRSSYPTFGGGTKLEIKR
- IC30 concentration in GIA against 3D7 target parasites [3]: 1.9 mg/mL
- Strain reactivity (of 7 AMA-1 allelic proteins) [4]: 7
- GIA at 1 mg/ml against the 3D7 target strain: Inhibition [5]: 20%

B2: Monoclonal 1B10 (antibody, V domains shown)
VH: EVQLQESGPGLVQPSQSLSITCTVSGFSLNMYGVHWVRQSPGKGLEWLGVIWSGGTTDYNAAFISRLSINRDNSKSQVFFKMNSLQTDDTAIYYCVRNNGYYVDAMDYWGQGTSVAVSS
VL: DVVMTQTPLSLPVSLGDQASISCRSSQSLVHSNGNTYLHWYLQRPGQSPKLLIYKVSNRFSGVPDRFSGSGSGTDFTLKISRVEAEDLGVYFCSQSTLGPTFGGGTKLEMQR
- IC30 concentration in GIA against 3D7 target parasites [3]: 0.15 mg/mL
- Strain reactivity (of 7 AMA-1 allelic proteins) [4]: 5
- GIA at 1 mg/ml against the 3D7 target strain: Inhibition [5]: 65%

B3: Monoclonal 4E8 (antibody, V domains shown)
VH: B2 VH with G26D, N30I, T56S, N70S, R71K, T87A, V96A, A116T
VL: B2 VL with S32N, R44K, S61F, L98H, G99V, M110I, Q111K
- IC30 concentration in GIA against 3D7 target parasites [3]: 0.15 mg/mL
- Strain reactivity (of 7 AMA-1 allelic proteins) [4]: 6
- GIA at 1 mg/ml against the 3D7 target strain: Inhibition [5]: 67%

B4: Monoclonal 4E11 (antibody, V domains shown)
VH: EVQLQESGPGLVRPSQSLSITCTVSGFSLPLYGVHWVRQSPGKGLEWLGVIWSGGSTDYNAAFVSRLSISKDNSKSQVFFEMNSLQADDTATYYCARNNGYYVDAMDYWGQGTSVTVSS
VL: B2 VL with R44K, Y54F, K79Q, V90F, L98H, G99V, M110I, Q111K
- IC30 concentration in GIA against 3D7 target parasites [3]: 0.22 mg/mL
- Strain reactivity (of 7 AMA-1 allelic proteins) [4]: 5
- GIA at 1 mg/ml against the 3D7 target strain: Inhibition [5]: 62%
